The values that follow come from PMC5076532, “The Vesicle Priming Factor CAPS Functions as a Homodimer via C2 Domain Interactions to Promote Regulated Vesicle Exocytosis*” (The Journal of Biological Chemistry, 2016).

What is called stoichiometry N is the number of molecules, sites or subunits per partner or assembly.

Data set [1] concerns the molecule itself. Kind of data set: native gel or EMSA; BN-PAGE of 5 μg of purified protein incubated with 1.5 μg of PI(4,5)P2 (micelles) for 0-30 min.
Data set [2] deals with the molecule itself. Kind of data set: native gel or EMSA; blue native (BN-PAGE, 5-14% or 6-14%) or clear native (CN-PAGE, 6%, 4 °C) gels of purified soluble protein without lipid; Coomassie or Western blot (CAPS or Myc antibody); 20 mM HEPES, 10 mM NaCl, 10 mM imidazole, 5% glycerol, pH 7.4 for CN-PAGE. For orientation: Mobility shift assays separate free from complexed probe on a gel.

Data set [3] deals with the molecule itself. Briefly: cell-based or functional assay.
Data set [4] concerns the molecule itself. Kind of data set: atomic force microscopy (volume analysis); 100 pM CAPS dried onto freshly cleaved mica.

B1: CAPS(ΔC2)-Myc-His (natural protein)
chain: not shown
notes: CAPS, Rattus norvegicus, NP_037351.1; amino acids 400-516 deleted from the CAPS ORF, residue 399 directly fused to residue 517; also called ΔC2-CAPS; source: HEK293-FT, transfected, purified as Myc-His fusion protein
As to B1, the binding result in data set [1] is on record as “binds”.

B2: CAPS(G476E)-Myc-His (natural protein)
chain: not shown
notes: CAPS, Rattus norvegicus, NP_037351.1, point mutant made on pcDNA3.1 CAPS-Myc-His; also called counterpart of unc-31(e714); source: HEK293-FT, transfected, purified as Myc-His fusion protein
With B2, the binding result in data set [2] is reported as “binds”.

B3: CAPS-Myc-His (recombinant wild-type rat CAPS) (natural protein)
chain: not shown
notes: the CAPS ORF in pcDNA3.1 CAPS-Myc-His; the words 'full length' are used only for the antigen of the antibody; also called CAPS-1; CADPS; source: HEK293-FT, transfected (calcium phosphate), purified (nickel-nitrilotriacetic acid column)
As to B3, the “Ca2+-dependent norepinephrine secretion from permeable PC12 cells: activity of bound CAPS-Myc-His (exclusively dimer) after wash, relative to added CAPS-Myc-His” value in data set [3] is ~50%. Besides, the “stoichiometry N” value in data set [4] turned out to be 2.
